Consider six molecules from paper PMC4239081, “Differential Interaction Kinetics of a Bipolar Structure-Specific Endonuclease with DNA Flaps Revealed by Single-Molecule Imaging”.

One data set deals with PCNA (Pyrococcus abyssi) (UniProt Q9UYX8). Conditions: cited from earlier work.
The target in data set [1] is T1, NucS (PabNucS) (Pyrococcus abyssi, UniProt Q9V2E8 1-251).
T1 sequence: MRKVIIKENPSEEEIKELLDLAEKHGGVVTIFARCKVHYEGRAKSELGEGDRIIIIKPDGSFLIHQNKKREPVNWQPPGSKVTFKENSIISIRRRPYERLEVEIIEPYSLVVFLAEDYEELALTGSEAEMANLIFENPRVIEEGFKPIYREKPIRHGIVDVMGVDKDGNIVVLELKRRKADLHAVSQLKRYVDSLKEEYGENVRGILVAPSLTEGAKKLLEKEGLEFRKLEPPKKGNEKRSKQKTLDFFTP
As to the kind of experiment: single-molecule TIRF; 150 mM NaCl, 23 C; kon 0.04e6 M-1s-1, no significant binding; Imaging buffer B2: 20 mM HEPES, 150 mM NaCl (or 50 mM), 0.1 mg/ml casein Blocking Reagent; pH not given; 23 C without divalent cations, or 45 C with or without. To be noted: protein: recombinant; tags: Alexa488 label; chain copies: 2; duplex; strands as printed not perfectly complementary.

For data set [2], the target named is T1, NucS (PabNucS). As to the kind of experiment: single-molecule TIRF (koff/kon); 150 mM NaCl, 23 C, no divalent cations; koff 0.076 s-1; Imaging buffer B2: 20 mM HEPES, 150 mM NaCl (or 50 mM), 0.1 mg/ml casein Blocking Reagent; pH not given; 23 C without divalent cations, or 45 C with or without. To be noted: protein: recombinant; tags: Alexa488 label; chain copies: 2; label: Alexa488 on F3D47; 3' flap of 20 nt at ss/dsDNA junction; three strands.

Data set [3] addresses T1, NucS (PabNucS). As to the kind of experiment: single-molecule TIRF (koff/kon); 50 mM NaCl, 23 C, no divalent cations; koff 0.52 s-1; Imaging buffer B2: 20 mM HEPES, 150 mM NaCl (or 50 mM), 0.1 mg/ml casein Blocking Reagent; pH not given; 23 C without divalent cations, or 45 C with or without. Conditions: protein: recombinant; tags: Alexa488 label; chain copies: 2; label: Alexa488 on F3D47; 3' flap of 20 nt at ss/dsDNA junction; three strands.

Data set [4] deals with T2, NucS (PabNucS);PCNA (PabPCNA) (Pyrococcus abyssi;Pyrococcus abyssi, UniProt Q9V2E8;Q9UYX8 1-251;1-249, |).
T2 sequence 1: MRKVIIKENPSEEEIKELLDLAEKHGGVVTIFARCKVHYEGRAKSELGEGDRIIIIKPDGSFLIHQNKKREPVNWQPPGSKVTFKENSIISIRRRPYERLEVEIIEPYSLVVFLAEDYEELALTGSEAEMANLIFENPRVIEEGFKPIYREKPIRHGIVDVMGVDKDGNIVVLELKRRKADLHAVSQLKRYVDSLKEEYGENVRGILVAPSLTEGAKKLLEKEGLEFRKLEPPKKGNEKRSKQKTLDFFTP
T2 sequence 2: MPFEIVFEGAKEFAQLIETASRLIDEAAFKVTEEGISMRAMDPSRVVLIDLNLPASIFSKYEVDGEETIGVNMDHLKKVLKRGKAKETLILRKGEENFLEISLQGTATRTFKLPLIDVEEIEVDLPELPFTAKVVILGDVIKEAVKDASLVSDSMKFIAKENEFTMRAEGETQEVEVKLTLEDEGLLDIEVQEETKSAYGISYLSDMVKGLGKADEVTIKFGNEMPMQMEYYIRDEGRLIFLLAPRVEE
Briefly: single-molecule TIRF (koff/kon); 45 C, 50 nM PCNA, no Mn2+; koff 0.55 s-1; Imaging buffer B2: 20 mM HEPES, 150 mM NaCl (or 50 mM), 0.1 mg/ml casein Blocking Reagent; pH not given; 23 C without divalent cations, or 45 C with or without. Conditions: protein: recombinant;recombinant; tags: Alexa488 label;; chain copies: 2;3; label: Alexa488 on F3D47; 3' flap of 20 nt; three strands.

Data set [5] addresses T2, NucS (PabNucS);PCNA (PabPCNA). Briefly: single-molecule TIRF (koff/kon); 45 C, PCNA, 5 mM MnCl2 (cleaving); koff 0.85 s-1; Imaging buffer B2: 20 mM HEPES, 150 mM NaCl (or 50 mM), 0.1 mg/ml casein Blocking Reagent; pH not given; 23 C without divalent cations, or 45 C with or without. To be noted: protein: recombinant;recombinant; tags: Alexa488 label;; chain copies: 2;3; label: Alexa488 on F3D47; 3' flap of 20 nt; three strands.

Data set [6] addresses T1, NucS (PabNucS). Briefly: single-molecule TIRF (koff/kon); 45 C, no Mn2+, no PCNA; koff 0.027 s-1; Imaging buffer B2: 20 mM HEPES, 150 mM NaCl (or 50 mM), 0.1 mg/ml casein Blocking Reagent; pH not given; 23 C without divalent cations, or 45 C with or without. Conditions: protein: recombinant; tags: Alexa488 label; chain copies: 2; label: Alexa488 on F3D47; 3' flap of 20 nt; three strands.

Data set [7] addresses T1, NucS (PabNucS). Briefly: single-molecule TIRF (koff/kon); 45 C, no Mn2+, no PCNA; koff 0.50 s-1; Imaging buffer B2: 20 mM HEPES, 150 mM NaCl (or 50 mM), 0.1 mg/ml casein Blocking Reagent; pH not given; 23 C without divalent cations, or 45 C with or without. To be noted: protein: recombinant; tags: Alexa488 label; chain copies: 2; label: Alexa488 on F5D42; 5' flap of 20 nt; three strands; D27 as printed has a mismatch to 49N.

The target in data set [8] is T2, NucS (PabNucS);PCNA (PabPCNA). Briefly: single-molecule TIRF (koff/kon); 45 C, PCNA, no Mn2+; koff 0.90 s-1; Imaging buffer B2: 20 mM HEPES, 150 mM NaCl (or 50 mM), 0.1 mg/ml casein Blocking Reagent; pH not given; 23 C without divalent cations, or 45 C with or without. To be noted: protein: recombinant;recombinant; tags: Alexa488 label;; chain copies: 2;3; label: Alexa488 on F5D42; 5' flap of 20 nt; three strands; D27 as printed has a mismatch to 49N.

For data set [9] the target is unchanged. As to the kind of experiment: single-molecule TIRF (koff/kon); 45 C, PCNA, 5 mM MnCl2 (cleaving); koff 0.67 s-1; Imaging buffer B2: 20 mM HEPES, 150 mM NaCl (or 50 mM), 0.1 mg/ml casein Blocking Reagent; pH not given; 23 C without divalent cations, or 45 C with or without. To be noted: protein: recombinant;recombinant; tags: Alexa488 label;; chain copies: 2;3; label: Alexa488 on F5D42; 5' flap of 20 nt; three strands; D27 as printed has a mismatch to 49N.

Data set [10] addresses T1, NucS (PabNucS). As to the kind of experiment: single-molecule TIRF (koff/kon); 150 mM NaCl, 23 C, no divalent cations; koff 0.026 s-1; Imaging buffer B2: 20 mM HEPES, 150 mM NaCl (or 50 mM), 0.1 mg/ml casein Blocking Reagent; pH not given; 23 C without divalent cations, or 45 C with or without. To be noted: protein: recombinant; tags: Alexa488 label; chain copies: 2; label: Alexa488 on F5D42; 5' flap of 20 nt at ss/dsDNA junction; three strands; D27 as printed has a mismatch to 49N.

In data set [11] the target is T1, NucS (PabNucS). As to the kind of experiment: single-molecule TIRF (koff/kon); 50 mM NaCl, 23 C, no divalent cations; koff 0.35 s-1; Imaging buffer B2: 20 mM HEPES, 150 mM NaCl (or 50 mM), 0.1 mg/ml casein Blocking Reagent; pH not given; 23 C without divalent cations, or 45 C with or without. Conditions: protein: recombinant; tags: Alexa488 label; chain copies: 2; label: Alexa488 on F5D42; 5' flap of 20 nt at ss/dsDNA junction; three strands; D27 as printed has a mismatch to 49N.

Usually Kd stands for the equilibrium constant for the complex coming apart. Turning to NucS (from UniProt Q9V2E8), the Kd with PCNA (Pyrococcus abyssi) was 15 nM.

B1: dsDNA (40N/40NC) (dsDNA)
DNA 1: CCTGCACGAATTAAGCAATTCGATATCATGGTCATAGCT
DNA 2: AGCTATGACCATGATTACGAATTGCTTAATTCGTGCAGG
modifications: biotin? (immobilized)
In the case of B1, the binding result in the data set with NucS (PabNucS) [1] was “no binding”.

B2: 3'-flap (49N/F3D47/D22) (structured_DNA)
DNA 1: AGCTACCATGCCTGCACGAATTAAGCAATTCGTAATCATGGTCATAGCT
DNA 2: AGCTATGACCATGATTACGAATTGCTTGGAATCCTGACGAACTGTAG
DNA 3: AATTCGTGCAGGCATGGTAGCT
modifications: biotin (two at each end of 49N)
With B2, the Kd with NucS (PabNucS) [2] came out at 7.8 ± 0.3 nM; with NucS (PabNucS) [3], 17.7 ± 0.4 nM.

B3: 3'-flap, one biotin (45 C) (structured_DNA)
DNA 1: AGCTACCATGCCTGCACGAATTAAGCAATTCGTAATCATGGTCATAGCT
DNA 2: AGCTATGACCATGATTACGAATTGCTTGGAATCCTGACGAACTGTAG
DNA 3: AATTCGTGCAGGCATGGTAGCT
modifications: one biotin at the extremity
Turning to B3, the dissociation constant Kd in data set [4] amounted to 161 ± 29 nM; in data set [5], 250 ± 47 nM; with NucS (PabNucS) [6] it was 12 ± 3 nM.

B4: 5'-flap, one biotin (45 C) (structured_DNA)
DNA 1: AGCTACCATGCCTGCACGAATTAAGCAATTCGTAATCATGGTCATAGCT
DNA 2: GATGTCAAGCAGTCCTAAGGAATTCGTGCAGGCATGGTAGCT
DNA 3: AGCTATGATCATGATTACGAATTGCTT
modifications: one biotin at the extremity
For B4, the Kd with NucS (PabNucS) [7] is 625 ± 470 nM; in data set [8], 195 ± 20 nM; in [9], 145 ± 15 nM.

B5: 5'-flap (49N/F5D42/D27) (structured_DNA)
DNA 1: AGCTACCATGCCTGCACGAATTAAGCAATTCGTAATCATGGTCATAGCT
DNA 2: GATGTCAAGCAGTCCTAAGGAATTCGTGCAGGCATGGTAGCT
DNA 3: AGCTATGATCATGATTACGAATTGCTT
modifications: biotin (two at each end of 49N)
Turning to B5, the Kd with NucS (PabNucS) [10] came out at 2.6 ± 0.2 nM; with NucS (PabNucS) [11] it was 9.4 ± 0.4 nM.
